# Source: patent US20260125477A1 (BEIJING MABWORKS BIOTECH, published 2026)
# T1: recombinant human B7-H3 (2Ig) protein, with His tag (human, UniProt Q5ZPR3-2 29-245, limits assumed)
# T1 construct: Bought protein; also called human B7-H3/CD276 protein
# T1 sequence (looked up): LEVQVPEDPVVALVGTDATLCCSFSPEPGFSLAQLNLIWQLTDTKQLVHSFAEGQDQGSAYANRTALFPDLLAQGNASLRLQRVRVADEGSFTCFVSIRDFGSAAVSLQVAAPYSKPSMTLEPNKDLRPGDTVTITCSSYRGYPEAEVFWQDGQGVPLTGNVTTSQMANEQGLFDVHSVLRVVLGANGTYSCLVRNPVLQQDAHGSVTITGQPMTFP
# T2: recombinant human B7-H3 (4Ig) protein, with His tag (human, UniProt Q5ZPR3 29-461, limits assumed)
# T2 construct: Bought protein; also called human B7-H3 (4Ig)/B7-H3b protein
# T2 sequence (looked up): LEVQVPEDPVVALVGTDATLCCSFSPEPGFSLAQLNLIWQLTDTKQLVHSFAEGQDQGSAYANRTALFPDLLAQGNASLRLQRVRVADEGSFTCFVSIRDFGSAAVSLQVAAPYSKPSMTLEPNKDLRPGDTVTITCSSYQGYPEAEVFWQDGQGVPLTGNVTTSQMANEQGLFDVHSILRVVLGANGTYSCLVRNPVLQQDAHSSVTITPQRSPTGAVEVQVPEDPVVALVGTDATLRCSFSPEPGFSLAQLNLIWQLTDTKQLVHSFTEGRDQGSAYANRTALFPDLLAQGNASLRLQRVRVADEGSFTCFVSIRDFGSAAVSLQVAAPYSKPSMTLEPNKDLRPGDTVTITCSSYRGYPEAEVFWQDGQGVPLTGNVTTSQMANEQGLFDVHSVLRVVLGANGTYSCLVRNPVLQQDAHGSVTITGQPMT
# T3: human B7-H7/HHLA2 protein, with His tag (MALS verified) (human, UniProt Q9UM44 23-344, limits assumed)
# T3 construct: Bought protein
# T3 sequence (looked up): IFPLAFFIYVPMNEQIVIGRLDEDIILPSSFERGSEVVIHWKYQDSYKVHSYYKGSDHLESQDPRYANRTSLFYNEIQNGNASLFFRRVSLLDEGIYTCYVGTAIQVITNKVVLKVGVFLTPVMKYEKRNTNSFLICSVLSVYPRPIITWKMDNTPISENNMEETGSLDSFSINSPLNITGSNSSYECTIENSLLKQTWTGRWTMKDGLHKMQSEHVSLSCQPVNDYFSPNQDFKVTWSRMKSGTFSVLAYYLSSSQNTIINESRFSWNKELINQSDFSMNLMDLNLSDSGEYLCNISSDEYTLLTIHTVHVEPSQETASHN
# T4: human B7-H4 protein, with His tag (MALS verified) (human, UniProt Q7Z7D3 29-258, limits assumed)
# T4 construct: Bought protein
# T4 sequence (looked up): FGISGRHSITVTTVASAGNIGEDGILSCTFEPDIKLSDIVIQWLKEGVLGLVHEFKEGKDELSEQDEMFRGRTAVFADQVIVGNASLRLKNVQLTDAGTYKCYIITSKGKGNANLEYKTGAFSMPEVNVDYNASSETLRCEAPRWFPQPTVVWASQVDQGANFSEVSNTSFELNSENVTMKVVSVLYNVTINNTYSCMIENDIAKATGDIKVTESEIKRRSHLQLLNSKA
# T5: human B7-H5/Gi24/VISTA protein, with His tag (MALS verified) (human, UniProt Q9H7M9 33-194)
# T5 construct: Bought protein
# T5 sequence (looked up): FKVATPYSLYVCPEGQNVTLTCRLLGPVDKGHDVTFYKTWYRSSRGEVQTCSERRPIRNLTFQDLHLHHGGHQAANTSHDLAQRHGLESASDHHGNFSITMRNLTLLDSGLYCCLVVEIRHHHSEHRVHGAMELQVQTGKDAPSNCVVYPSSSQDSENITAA
# Tests used:
# [1] = biological target: T1, recombinant human B7-H3 (2Ig) protein, …; test: SPR (Biacore T200), antibody captured on Protein A chip, His-tagged antigen injected
# Protocol: (§1) The fully human anti-human B7-H3 antibodies were tested for their binding affinity to human B7-H3 (4Ig), human B7-H3 (2Ig), monkey B7-H3 (monkey B7-H3/CD276 protein, with His tag, Cat #: B73-C52Ha, ACROBiosystems) and mouse B7-H3 protein (mouse B7-H3/CD276 protein, with His tag, Cat #: B73-M52H4, ACROBiosystems) by surface plasmon resonance (SPR) using Biacore T200 biosensor (Biacore, US) provided with a pre-fixed Protein A sensor chip. Briefly, the anti-human B7-H3 antibodies (1 μg/mL) were injected to the Biacore T200 biosensor at 10 μL/min for 20 sec, to achieve the desired protein density (100±30 RU).
# (§2) The data as generated was analyzed using Biacore Insight V2.0.1 5.12933 with the one-to-one Langmuir binding model. The association rate (kₒₙ) and dissociation rate (koff) were obtained at the same time. The affinity was calculated as the quotient of the two kinetic rate constants (KD=koff/kₒₙ).
# [2] = biological target: T2, recombinant human B7-H3 (4Ig) protein, …; test: as above
# Protocol: as §1, §2
# [3] = biological target: T6, monkey B7-H3/CD276 protein, with His tag (monkey); test: as above
# T6 construct: Bought protein
# Protocol: as §1, §2
# [4] = biological target: T7, human PD-L1/B7-H1 protein, with His tag (human, UniProt Q9NZQ7 19-238); test: SPR (Biacore T200), antibody captured on Protein A chip, response at 200 nM antigen
# T7 construct: Bought protein
# T7 sequence (Q9NZQ7 19-238 limits assumed): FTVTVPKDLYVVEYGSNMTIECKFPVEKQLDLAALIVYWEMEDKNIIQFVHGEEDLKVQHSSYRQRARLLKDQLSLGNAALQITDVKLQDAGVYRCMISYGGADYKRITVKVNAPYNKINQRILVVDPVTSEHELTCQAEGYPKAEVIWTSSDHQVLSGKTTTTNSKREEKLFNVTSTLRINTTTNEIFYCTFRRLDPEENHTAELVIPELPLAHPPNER
# Protocol: (§3) The anti-human B7-H3 antibodies were tested for their binding capability to B7 family proteins by SPR using Biacore T200 biosensor (Biacore, US) provided with a pre-fixed Protein A sensor chip.
# (§4) The dissociation was monitored for 600 sec. The data was analyzed using Biacore 8k evaluation software version 3.0, to obtain the binding responses, and the protein concentration-binding response curves were plotted, to determine the cross-reaction of the anti-human B7-H3 antibodies to the B7 family proteins.
# [5] = biological target: T3, human B7-H7/HHLA2 protein, with His tag …; test: as above
# Protocol: as §3, §4
# [6] = biological target: T7, human PD-L1/B7-H1 protein, with His tag; test: SPR (Biacore T200), antibody captured on Protein A chip
# Protocol: as §3, §4
# [7] = biological target: T3, human B7-H7/HHLA2 protein, with His tag …; test: as above
# Protocol: as §3, §4
# [8] = biological target: T4, human B7-H4 protein, with His tag (MALS …); test: as above
# Protocol: as §3, §4
# [9] = biological target: T5, human B7-H5/Gi24/VISTA protein, with …; test: as above
# Protocol: as §3, §4
Binder,Kd [1] [nM],koff [1] [s⁻¹],kon [1] [M⁻¹ s⁻¹],Kd [2] [nM],koff [2] [s⁻¹],kon [2] [M⁻¹ s⁻¹],Kd [3] [nM],koff [3] [s⁻¹],kon [3] [M⁻¹ s⁻¹],Response (RU) [4] [RU],Response (RU) [5] [RU],binding result [6],binding result [7],binding result [8],binding result [9]
"10D7 (antibody, human IgG1, kappa, V domains shown, also called 10D7-WT; Ab10D7) VH: QVQLVQSGPGLVKPSETLSLTCTVSGGSISRSSYYWGWIRQPPGKGLEWIGNIFYAGSTYYNPSLKSRVTISVDTSKNQFSLKLSSVTAADTAVYYCARRITGTTGWFDPWGQGTLVTVSS VL: DIQLTQSPSSLSASVGDRVTITCRASQGIRNDLGWYQQKPGKAPKLLIYAASTLQSGVPSRFSGSGSGTDFTLTISSLQPEDFATYYCLQDYNYPRTFGQGTKVEIKR",386,0.0588,152000,1.11,0.000291,263000,49.5,0.0167,337000,0.3,0.2,no binding (tested: 200 nM),no binding (tested: 200 nM),no binding (tested: 200 nM),no binding (tested: 200 nM)
"Enoblituzumab (antibody, human IgG1, kappa, V domains shown, Humanized anti-B7-H3 antibody of MacroGenics with optimised Fc, used as the positive control; also called AbEno; enoblituzumab-IgG1-Mut) VH: EVQLVESGGGLVQPGGSLRLSCAASGFTFSSFGMHWVRQAPGKGLEWVAYISSDSSAIYYADTVKGRFTISRDNAKNSLYLQMNSLRDEDTAVYYCGRGRENIYYGSRLDYWGQGTTVTVSS VL: DIQLTQSPSFLSASVGDRVTITCKASQNVDTNVAWYQQKPGKAPKALIYSASYRYSGVPSRFSGSGSGTDFTLTISSLQPEDFATYYCQQYNNYPFTFGQGTKLEIKR",275,0.0203,73700,1.11,0.000239,216000,0.966,0.000223,231000,-2.2,-1.3,,,,

# Now those with a lower Kd [1], led by results:
Kd [1] [nM],koff [1] [s⁻¹],kon [1] [M⁻¹ s⁻¹],Kd [2] [nM],koff [2] [s⁻¹],kon [2] [M⁻¹ s⁻¹],Kd [3] [nM],koff [3] [s⁻¹],kon [3] [M⁻¹ s⁻¹],Response (RU) [4] [RU],Response (RU) [5] [RU],binding result [6],binding result [7],binding result [8],binding result [9],Binder
51.5,0.00653,127000,1.26,0.00031,247000,1.14,0.000295,258000,1,1.3,,,,,"6B5 (antibody, human IgG1, kappa, V domains shown, also called 6B5-WT; Ab6B5) VH: QVQLVESGPGLVKPSQTLSLTCTVSDGSISSGGYYWSWIRQHPGKGLEWIGYIYYSGGTYYSPSLKSRVTISVDTSKNQFSLKLTSVTAADTAVYYCARRAGYSSSFDSWGQGILVTVSS VL: EIVLTQSPLSLPVTPGEPASISCRSSQSLLYSNGYTYLDWYLQKPGQSPQFLIYLGFNRASGVPDRFSGSGSGTDFTLKISRVEAEDVGVYYCMQGLQTPYTFGQGTKLEIKR"
10.4,0.000422,40500,1.01,0.00011,109000,,,,0.5,1.7,no binding (tested: 200 nM),no binding (tested: 200 nM),no binding (tested: 200 nM),no binding (tested: 200 nM),"10F5 (antibody, human IgG1, kappa, V domains shown, also called Ab10F5) VH: QVQLVQSGAEVKKPGSSVKVSCKASGGTFSSQAISWVRQAPGQGLEWMGRIIPMLGIGDYAQSFQGRVTITADKSTSTAYLEVSSLGSEDTAVYYCAREGIAALGTNYYYGMDVWGQGTAVTVSS VL: EIVMTQSPSSVSASVGDRVTITCRASQGISRWLAWYQQKPGKAPKLLIYVASSLQSGVPSRFSGSGSGTDFTLTISSLQPEDFATYYCQQANSFPFTFGPGTKVDIRR"
